Patent US20180296707A1, “PHARMACEUTICAL FORMULATION AND METHOD OF PREPARING THE SAME” (SeeCure Taiwan Co., Ltd., priority 2017, published 2018)

Experiments:
human colorectal tumor = assay: PET/CT imaging, tumor/muscle count density in colorectal tumor models; type: in vivo, athymic nude mice; conditions: 500 μCi/mouse iv;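 note: human colorectal tumors grown on the hind legs of athymic nude mice, imaged by micro-PET/CT 21 to 28 days post inoculation, once tumors reached roughly 0.5 cm across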
Procedure: (§1) Briefly, athymic nude mice (15±2 g) bearing human tumors (at hind legs) derived from the colorectal and pancreatic cell line were used for imaging studies. Studies were performed 21 to 28 days after inoculation when tumors were approximately 0.5 cm in diameter. Scintigraphic images were obtained either from a micro-PET (Inveon) embedded in the gantries coordinate PET/CT data acquisition. […] The static images were obtained at 0.5, 1 and 2 hrs.

[1] = as above; type: in vivo, athymic nude mice; conditions: athymic nude, tumor/muscle, 500 uCi/mouse, total radioactivity, 500 μCi/mouse iv
Procedure: as §1

human pancreatic tumor = assay: PET/CT imaging, tumor/muscle count density in pancreatic tumor models; conditions: human pancreatic-tumor bearing mouse, FIG. 12
Procedure: as §1

SSTR2 = SSTR2 (Homo sapiens, UniProt P30874); conditions: background statement; cited from earlier work
SSTR2, sequence (P30874 whole entry, species assumed): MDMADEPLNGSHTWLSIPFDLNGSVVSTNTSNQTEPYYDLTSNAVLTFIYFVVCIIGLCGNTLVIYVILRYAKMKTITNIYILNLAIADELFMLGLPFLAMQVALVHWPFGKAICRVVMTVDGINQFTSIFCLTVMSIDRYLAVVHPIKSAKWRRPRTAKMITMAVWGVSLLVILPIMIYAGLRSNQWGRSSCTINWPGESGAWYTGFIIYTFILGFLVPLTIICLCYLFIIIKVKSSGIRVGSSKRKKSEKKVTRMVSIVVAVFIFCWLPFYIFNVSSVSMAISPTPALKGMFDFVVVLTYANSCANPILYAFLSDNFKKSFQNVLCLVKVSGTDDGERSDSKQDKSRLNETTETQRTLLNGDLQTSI

SSTR3 = SSTR3 (Homo sapiens, UniProt P32745); conditions: background statement; cited from earlier work
SSTR3, sequence (P32745 whole entry, species assumed): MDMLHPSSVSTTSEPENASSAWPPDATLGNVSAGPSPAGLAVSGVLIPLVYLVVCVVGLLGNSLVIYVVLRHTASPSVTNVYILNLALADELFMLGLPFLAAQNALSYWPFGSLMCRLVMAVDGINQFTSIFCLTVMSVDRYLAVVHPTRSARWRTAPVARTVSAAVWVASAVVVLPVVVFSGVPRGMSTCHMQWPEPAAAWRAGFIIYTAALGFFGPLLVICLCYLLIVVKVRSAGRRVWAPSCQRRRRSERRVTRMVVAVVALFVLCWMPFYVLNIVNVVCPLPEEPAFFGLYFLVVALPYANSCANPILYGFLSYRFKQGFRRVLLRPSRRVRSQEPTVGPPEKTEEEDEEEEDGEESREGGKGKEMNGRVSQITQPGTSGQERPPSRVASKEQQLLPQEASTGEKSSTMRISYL

C[C@@H](O)[C@H](NC(=O)[C@@H]1CSSC[C@H](NC(=O)[C@@H](Cc2ccccc2)NC(=O)CN2CCN(CC(=O)O)CCN(CC(=O)O)CCN(CC(=O)O)CC2)C(=O)N[C@@H](Cc2ccc(O)cc2)C(=O)N[C@H](Cc2c[nH]c3ccccc23)C(=O)N[C@@H](CCCCN)C(=O)N[C@@H]([C@@H](C)O)C(=O)N1)C(=O)O [^68Ga-DOTATATE, metal not drawn]
Muscle count density (human colorectal tumor; frame 0, midpoint 15 sec): 0.242
Tumor count density (human colorectal tumor; frame 0, midpoint 15 sec): 0.290
Muscle count density (human colorectal tumor; frame 1, midpoint 30 sec): 0.273
Tumor count density (human colorectal tumor; frame 1, midpoint 30 sec): 0.286
Muscle count density (human colorectal tumor; frame 2, midpoint 45 sec): 0.237
Tumor count density (human colorectal tumor; frame 2, midpoint 45 sec): 0.298
Muscle count density (human colorectal tumor; frame 3, midpoint 60 sec): 0.255
Tumor count density (human colorectal tumor; frame 3, midpoint 60 sec): 0.324
Muscle count density (human colorectal tumor; frame 4, midpoint 90 sec): 0.238
Tumor count density (human colorectal tumor; frame 4, midpoint 90 sec): 0.296
Muscle count density (human colorectal tumor; frame 5, midpoint 120 sec): 0.227
Tumor count density (human colorectal tumor; frame 5, midpoint 120 sec): 0.296
Muscle count density (human colorectal tumor; frame 6, midpoint 180 sec): 0.235
Tumor count density (human colorectal tumor; frame 6, midpoint 180 sec): 0.284
Muscle count density (human colorectal tumor; frame 7, midpoint 240 sec): 0.233
Tumor count density (human colorectal tumor; frame 7, midpoint 240 sec): 0.303
Muscle count density (human colorectal tumor; frame 8, midpoint 300 sec): 0.231
Tumor count density (human colorectal tumor; frame 8, midpoint 300 sec): 0.300
Muscle count density (human colorectal tumor; frame 9, midpoint 360 sec): 0.232
Tumor count density (human colorectal tumor; frame 9, midpoint 360 sec): 0.286
Muscle count density (human colorectal tumor; frame 10, midpoint 540 sec): 0.230
Tumor count density (human colorectal tumor; frame 10, midpoint 540 sec): 0.287
Muscle count density (human colorectal tumor; frame 11, midpoint 720 sec): 0.231
Tumor count density (human colorectal tumor; frame 11, midpoint 720 sec): 0.300
Muscle count density (human colorectal tumor; frame 12, midpoint 900 sec): 0.227
Tumor count density (human colorectal tumor; frame 12, midpoint 900 sec): 0.294
Muscle count density (human colorectal tumor; frame 13, midpoint 1200 sec): 0.206
Tumor count density (human colorectal tumor; frame 13, midpoint 1200 sec): 0.292
Muscle count density (human colorectal tumor; frame 14, midpoint 1500 sec): 0.200
Tumor count density (human colorectal tumor; frame 14, midpoint 1500 sec): 0.288
Muscle count density (human colorectal tumor; frame 15, midpoint 1800 sec): 0.180
Tumor count density (human colorectal tumor; frame 15, midpoint 1800 sec): 0.279
tissue to tissue ratio ([1]; colorectal tumor-bearing mice, dynamic images 0 to 30 minutes, read-out: average tumor/muscle (T/M) count density ratios, approximate range): 1.2
tissue to tissue ratio at 15 s ([1]; frame 0, midpoint 15 sec): 1.2
tissue to tissue ratio at 0.5 min ([1]; frame 1, midpoint 30 sec): 1.05
tissue to tissue ratio at 45 s ([1]; frame 2, midpoint 45 sec): 1.26
tissue to tissue ratio at 1 min ([1]; frame 3, midpoint 60 sec): 1.27
tissue to tissue ratio at 0.025 h ([1]; frame 4, midpoint 90 sec): 1.24
tissue to tissue ratio at 2 min ([1]; frame 5, midpoint 120 sec): 1.3
tissue to tissue ratio at 0.05 h ([1]; frame 6, midpoint 180 sec): 1.21
tissue to tissue ratio at 4 min ([1]; frame 7, midpoint 240 sec): 1.3
tissue to tissue ratio at 5 min ([1]; frame 8, midpoint 300 sec): 1.3
tissue to tissue ratio at 0.1 h ([1]; frame 9, midpoint 360 sec): 1.23
tissue to tissue ratio at 0.15 h ([1]; frame 10, midpoint 540 sec): 1.25
tissue to tissue ratio at 0.2 h ([1]; frame 11, midpoint 720 sec): 1.3
tissue to tissue ratio at 0.25 h ([1]; frame 12, midpoint 900 sec): 1.29
tissue to tissue ratio at 20 min ([1]; frame 13, midpoint 1200 sec): 1.42
tissue to tissue ratio at 25 min ([1]; frame 14, midpoint 1500 sec): 1.44
tissue to tissue ratio at 0.5 h ([1]; frame 15, midpoint 1800 sec): 1.55

O=C([O-])CN1CCN(CC(=O)[O-])CCN(CC(=O)O)CCN(CC(=O)[O-])CC1.[68Ga+3] [^68Ga-DOTA]
bladder uptake (PET/CT) (human pancreatic tumor): high bladder uptake
clearance (PET/CT) (human pancreatic tumor): fast clearance
visualization of neuroendocrine tumors by PET/CT (human pancreatic tumor): could not be used to visualize neuroendocrine tumors

C[C@@H](O)[C@@H]1NC(=O)[C@H](CCCCN)NC(=O)[C@@H](Cc2c[nH]c3ccccc23)NC(=O)[C@H](Cc2ccccc2)NC(=O)[C@@H](NC(=O)[C@H](N)Cc2ccccc2)CSSC[C@@H](C(=O)N[C@H](CO)[C@@H](C)O)NC1=O [octreotide]
affinity to SSTR2 subtype (SSTR2): high affinity
affinity to SSTR3 subtype (SSTR3): low affinity
